# Experimental data: PMC3653069
# B1: rC/G (dsDNA)
# DNA 1: CCAGACGTCTGTCGACGTTGGGAAGCTTGAG
# DNA 2: CTCAAGCTTCCCAACGTCGACAGACGTCTGG
# modifications: single ribocytidine at position 13 of strand 1 (rC opposite G)
# Target: MutSα (MSH2 subunit);MutSα (MSH6 subunit) (human;human, UniProt P43246;P52701 1-934;1-1360, |)
# Assay: EMSA
binder,measurement,value
B1,binding result,no binding
